Test results as given in patent publication US20110118131A1 (published 2011).
Residue numbers refer to the chain shown, from its start. In names and notes the source's numbering stands.

B1: XPA23 heavy chain S52P (Fab, V domains shown)
VH: EVQLLESGGGLVQPGGSLRLSCAASGFTFSKYFMFWVRQAPGKGLEWVSVIPPSGGMTRYADSVKGRFTISRDNSKNTLYLQMNSLRAEDTAVYYCARVGYGGNSDYWGQGTLVTVSS
VL: DIQMTQSPSSVSASVGDRLTIICRASQDINRWLAWYQQTPGNAPKLLIHSATSLQSGVPSRFSGSGSGTDFTLTINSLQPEDFATYYCQQADSFPLTFGGGTKVEIK
notes: Fab, periplasmic extract; also called C5A S52P
B2: XPA23 heavy chain S105A (Fab, V domains shown)
VH: B1 VH with P52S, S105A
VL: B1 VL
notes: Fab, periplasmic extract; also called C5A S105A
B3: XPA23 heavy chain S54I (Fab, V domains shown)
VH: B1 VH with P52S, S54I
VL: B1 VL
notes: Fab, periplasmic extract; also called C5A S54I
B4: XPA23 heavy chain S105P (Fab, V domains shown)
VH: B1 VH with P52S, S105P
VL: B1 VL
notes: Fab, periplasmic extract; also called C5A S105P
B5: XPA23 heavy chain S54P (Fab, V domains shown)
VH: B1 VH with P52S, S54P
VL: B1 VL
notes: Fab, periplasmic extract; also called C5A S54P
B6: XPA23 heavy chain S105T (Fab, V domains shown)
VH: B1 VH with P52S, S105T
VL: B1 VL
notes: Fab, periplasmic extract; also called C5A S105T
B7: XPA23 heavy chain S52V (Fab, V domains shown)
VH: B1 VH with P52V
VL: B1 VL
notes: Fab, periplasmic extract; also called C5A S52V
B8: XPA23 heavy chain S105I (Fab, V domains shown)
VH: B1 VH with P52S, S105I
VL: B1 VL
notes: Fab, periplasmic extract; also called C5A S105I
B9: XPA23 heavy chain S52T (Fab, V domains shown)
VH: B1 VH with P52T
VL: B1 VL
notes: Fab, periplasmic extract; also called C5A S52T
B10: XPA23 heavy chain S54G (Fab, V domains shown)
VH: B1 VH with P52S, S54G
VL: B1 VL
notes: Fab, periplasmic extract; also called C5A S54G
B11: XPA23 heavy chain S54T (Fab, V domains shown)
VH: B1 VH with P52S, S54T
VL: B1 VL
notes: Fab, periplasmic extract; also called C5A S54T
B12: XPA23 heavy chain S54L (Fab, V domains shown)
VH: B1 VH with P52S, S54L
VL: B1 VL
notes: Fab, periplasmic extract; also called C5A S54L
B13: XPA23 heavy chain S54A (Fab, V domains shown)
VH: B1 VH with P52S, S54A
VL: B1 VL
notes: Fab, periplasmic extract; also called C5A S54A
B14: XPA23 heavy chain S105V (Fab, V domains shown)
VH: B1 VH with P52S, S105V
VL: B1 VL
notes: Fab, periplasmic extract; also called C5A S105V
B15: XPA23 heavy chain S105G (Fab, V domains shown)
VH: B1 VH with P52S, S105G
VL: B1 VL
notes: Fab, periplasmic extract; also called C5A S105G
B16: XPA23 heavy chain T58A (Fab, V domains shown)
VH: B1 VH with P52S, T58A
VL: B1 VL
notes: Fab, periplasmic extract; also called C5A T58A
B17: XPA23 heavy chain S54V (Fab, V domains shown)
VH: B1 VH with P52S, S54V
VL: B1 VL
notes: Fab, periplasmic extract; also called C5A S54V

Target: T1, IL-1β (UniProt P01584 117-269)
T1 construct: Antigen of XPA23
Assay: Biacore, Fab periplasmic extract

| fold difference in affinity against the original [fold] | Binder |
| --- | --- |
| 0.05 | B1 |
| 0.84 | B2 |
| 0.86 | B3 |
| 1.41 | B4 |
| 0.06 | B5 |
| 0.11 | B6 |
| 0.04 | B7 |
| 0.07 | B8 |
| 0.04 | B9 |
| 1.43 | B10 |
| 0.14 | B11 |
| 0.91 | B12 |
| 1 | B13 |
| 0.08 | B14 |
| 0.12 | B15 |
| 0.14 | B16 |
| 1 | B17 |
